Laboratory results reported in patent US20160009800A1 (XOMA US, published 2016).

B1: Ab037 (antibody, V domains shown)
VH: EVQLLESGGGLVQPGGSLRLSCAASGFTFSSYEMNWVRQAPGKGLEWVSSISSSSRYADVANSVVGRFTISRDNSKNTLYLQMNSLRAEDTAVYYCARGEWLDHFDYWGQGTLVTVSS
VL: QSVLTQPPSASGTPGQRVTISCSGSSSNIGNSAVNWYQQLPGTAPKLLIYDNNKRPSGVPDRFSGSKSGTSASLAISGLRSEDEADYYCQVWDSGTAVFGGGTKLTVLG
notes: Partial allosteric agonist; also called XPA.015.048
B2: Ab049 (antibody, V domains shown)
VH: EVQLLESGGGLVQPGGSLRLSCAASGFTFSSNYMSWVRQAPGKGLEWVSSISGGSTYYADSRKGRFTISRDNSKNTLYLQMNSLRAEDTAVYYCARLDWSSGAFDIWGQGTLVTVSS
VL: QSVLTQPPSASGTPGQRVTISCSGRSSNIGYNYVSWYQQLPGTAPKLLIYGNSNRPSGVPDRFSGSKSGTSASLAISGLRSEDEADYYCAAWDDSLSGPVFGGGTKLTVLG
notes: also called XPA.015.165
B3: Ab053 (antibody, V domains shown)
VH: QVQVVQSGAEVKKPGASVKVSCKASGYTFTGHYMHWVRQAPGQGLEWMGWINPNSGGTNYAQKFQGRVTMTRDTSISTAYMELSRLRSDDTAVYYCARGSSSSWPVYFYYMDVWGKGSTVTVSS
VL: QSALTQPRSVSESPGKTVTISCTGSGGSIGSNYVQWYQQRPGSAPTTVIFEDNRRPSGVPDRFSGSIHSSSNSASLTISGLKTEDEADYYCQSYVGTIVVFGGGTKVTVL
notes: also called XPA.015.196
B4: Ab085 (antibody, IgG2, V domains shown)
VH: EVQLVESGGGVVQPGRSLRLSCAASGFIFSSYGMHWVRQVPDKGLEWVAGISLRGSDNYYADSVKGRFTISRDNSKNTLYLQMNNLRPDDTAVYYCARGFRWPVTPFDHWGQGTLVTVSS
VL: QTVVTQEPSFSVSPGGTVTLTCGLTSGSVSTRNFPGWYQQTPGQTLRTLIYNTNTRSSGVPDRFSGSILGNKAALTITGAQADDESDYYCVLYMTGDIWVFGGGTKVTVLG
notes: also called XPA.015.275
B5: Ab079 (antibody, IgG2, V domains shown)
VH: QMQLVQSGAEMKKPGASVKVSCKASGYSFSDYGITWVRQAPGQGPEWMGWISGYNGNTNYAQKFQDRVTMTTDTSTSTAYMELRSLKSDDTAVYFCARARGVWMFDNWGQGTLVTVSS
VL: AIRMTQSPSTLSASVGDRVTITCRASQSISTWLAWYQQKPGKAPKLLIYTTSTLESGVPSRFSGSRSGTEFTLTISSLQPDDFATYYCQQYNSYPLTFGGGTKVEIK
notes: also called XPA.015.245
B6: Ab062 (antibody, IgG2, V domains shown)
VH: QVQLQQWGAGLLKPSETLSLTCAVYGGSFSGYYWSWIRQPPGKGLEWIGEINHSGSTNYNPSLKSRVTISVDTSKNQFSLKLSSVTAADTAVYYCARGPSGWYIREFDYWGQGTLVTVSS
VL: QSVLTQPPSVSGAPGQRVTISCTGSSSNIGAGYDVHWYQQLPGTAPKLLIYGNSNRPSGVPDRFSGSKSGTSASLAITGLQAEDEADYYCQSYDSSLSGSGVFGGGTKVTVL
notes: also called XPA.015.211
B7: Ab047 (antibody, V domains shown)
VH: EVQLLESGGGLVQPGGSLRLSCAASGFTFSSYAMSWVRQAPGKGLEWVSSISGGSTYYADSRKGRFTISRDNSKNTLYLQMNSLRAEDTAVYYCARHADQWPGSWFDPWGQGTLVTVSS
VL: QSVLTQPPSASGTPGQRVTISCSGSSSNIGSNTVNWYQQLPGTAPKLLIYDNNKRPSGVPDRFSGSKSGTSASLAISGLRSEDEADYYCQSYDSSLSGWEVFGGGTKLTVLG
notes: also called XPA.015.121
B8: Ab080 (antibody, IgG2, V domains shown)
VH: EVQLVESGGGVVQPGGSLRLSCAASGFTFDDYAMHWVRQAPGKGLEWVSLISWDGGSTYYADSVKGRFTISRDNSKNSLYLQMNSLRAEDTALYYCAKARGVVIIDYWGQGTLVTVSS
VL: EIVLTQSPGTLSLSPGERATLSCRASQSLSSSFLAWYQQKPGQAPRLLIYGAGSRATGVPDRFSGSGYGTDFSLTISRLELEDFAVYYCQQYDRSQITFGQGTRLEIK
notes: also called XPA.015.246
B9: Ab083 (antibody, IgG2, V domains shown)
VH: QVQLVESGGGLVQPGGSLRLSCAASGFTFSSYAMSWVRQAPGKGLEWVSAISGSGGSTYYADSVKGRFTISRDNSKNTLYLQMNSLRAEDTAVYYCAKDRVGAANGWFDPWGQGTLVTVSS
VL: AIQLTQSPSSLSASVGDRVTISCRASQSITSYLNWYQQKPGKAPNLLIYAASSLQSGVPSRFSGSGSGTDFTLTIAGLQPEDFATYYCQQFDSYPFTFGGGTKLEIK
notes: also called XPA.015.249
B10: Ab045 (antibody, V domains shown)
VH: EVQLLESGGGLVQPGGSLRLSCAASGFTFSSYWMSWVRQAPGKGLEWVSGISGSGGSTDYADSVKGRFTISRDNSKNTLYLQMNSLRAEDTAVYYCARELPAFWSAFDYWGQGTLVTVSF
VL: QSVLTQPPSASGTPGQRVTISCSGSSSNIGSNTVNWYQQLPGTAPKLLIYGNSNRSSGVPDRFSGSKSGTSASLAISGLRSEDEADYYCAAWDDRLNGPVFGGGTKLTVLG
notes: also called XPA.015.111

Columns and labels:
[1] = target: T1, human insulin receptor complexed with human insulin (human, UniProt P06213 28-1382; P01308 25-54; P01308 90-110); experiment: KinExA, affinity with insulin against affinity without insulin
T1 construct: whole, on cells;mature; also called hINSR-hINS complex; INS/INSR complex
Protocol: (§1) Beads were rotated at room temperature for 6 hours then allowed to settle. Supernatant was replaced with PBS with 50 mg/mL BSA Fraction V (Sigma-Aldrich, St. Louis, Mo.) and rotated overnight at 4° C. […] On the KinExA 3000 the sample was injected at 0.25 mL/minute for 240 seconds, then rinsed for 60 seconds in running buffer (PBS with 0.05% sodium azide), then 240 seconds of the detection solution was injected, followed by a final 90 second wash at 1 mL/minute. The difference in voltage from an early initial time-point and a time point near the end of the run was measured and used to calculate affinities. The INSR concentration on the cells was estimated at 2.5×10⁵ receptors/cell. Affinity was determined using the KinExA software (Sāpidyne, Boise Id.) and EC50's were calculated by non-linear fit in Prism (GraphPad Software, La Jolla Calif.).
(§2) Samples were incubated overnight at 4° C. for 18 hours then centrifuged to pellet cells and supernatants were removed for testing on the KinExA. […] Detection solution used was R-PE-(Fab′)2 fragment goat anti-Human IgG(H+L) (Jackson Immuno Research, West Grove Pa.).

mouse insulin receptor [2] = target: T2, mouse insulin receptor (mouse, UniProt P15208 28-1372); experiment: cell-based or functional assay
human insulin receptor [3] = target: T3, human insulin receptor (human, UniProt P06213 28-1382); experiment: cell-based or functional assay
human insulin receptor [4] = target: T3, human insulin receptor; experiment: KinExA antibody depletion by hINSR8-CHOK1 cells, without insulin
Protocol: as §1, §2

[5] = target: T1, human insulin receptor complexed with …; experiment: KinExA antibody depletion by hINSR8-CHOK1 cells, with 175 nM insulin
Protocol: as §1, §2

mouse insulin receptor [6] = target: T2, mouse insulin receptor; experiment: FACS on mouse INSR; conditions not given on the sheet [cont'd]
mouse insulin receptor [7] = target: T2, mouse insulin receptor; experiment: FACS, serum-starved CHO-K1 cells expressing mouse INSR, no insulin
[8] = target: T1, human insulin receptor complexed with …; experiment: FACS, CHO-K1 human INSR cells, signal with insulin divided by signal without insulin
Protocol: (§3) Twenty five microliter aliquots of cells were plated into 96 well plates, mixed with 25 ul of antibody or PPE and incubated on ice for 1 h.
(§4) The cells were then washed once with FACS buffer and the binding of the antibody was detected by the addition of 25 ul of an appropriate fluorochrome-conjugated secondary antibody. […] After a final 15 min incubation on ice the cells were washed and the pellets resuspended in FACS buffer. The cells were analyzed on a FACSCAN™ (Becton-Dickinson, Milipitas, Calif.) and the data analyzed in both FLOWJO™ (Treestar, Ashland, Oreg.) and Microsoft Excel™.

[9] = target: T1, human insulin receptor complexed with …; experiment: FACS, serum-starved CHO-K1 cells expressing human INSR, with insulin
Protocol: as §3, §4

[10] = target: T4, mouse insulin receptor complexed with human insulin (mouse; human, UniProt P15208 28-1372; P01308 25-54; P01308 90-110); experiment: FACS, serum-starved CHO-K1 cells expressing mouse INSR, with insulin
T4 construct: whole, on cells;mature; also called muINSR/hINS complex
Protocol: as §3, §4

[11] = target: T4, mouse insulin receptor complexed with …; experiment: FACS, CHO-K1 mouse INSR cells, signal with insulin divided by signal without insulin
Protocol: as §3, §4

human insulin receptor [12] = target: T3, human insulin receptor; experiment: FACS, serum-starved CHO-K1 cells expressing human INSR, no insulin
Protocol: as §3, §4

mouse insulin receptor [13] = target: T2, mouse insulin receptor; experiment: cell-based or functional assay; remark: listed apart in the source
human insulin receptor [14] = target: T3, human insulin receptor; experiment: cell-based or functional assay; remark: listed apart in the source
human insulin receptor [15] = target: T3, human insulin receptor; experiment: cell-based or functional assay; remark: listed apart in the source
[16] = target: T4, mouse insulin receptor complexed with …; experiment: FACS, serum-starved CHO-K1 cells expressing mouse INSR, with insulin [cont'd]
Protocol: as §3, §4

human insulin receptor [17] = target: T3, human insulin receptor; experiment: FACS, serum-starved CHO-K1 cells expressing human INSR, no insulin [cont'd]
Protocol: as §3, §4

[18] = target: T4, mouse insulin receptor complexed with …; experiment: FACS, CHO-K1 mouse INSR cells, signal with insulin divided by signal without insulin [cont'd]
Protocol: as §3, §4

[19] = target: T1, human insulin receptor complexed with …; experiment: FACS, CHO-K1 human INSR cells, signal with insulin divided by signal without insulin [cont'd]
Protocol: as §3, §4

[20] = target: T1, human insulin receptor complexed with …; experiment: FACS, serum-starved CHO-K1 cells expressing human INSR, with insulin [cont'd]
Protocol: as §3, §4

mouse insulin receptor [21] = target: T2, mouse insulin receptor; experiment: FACS, serum-starved CHO-K1 cells expressing mouse INSR, no insulin [cont'd]
Protocol: as §3, §4

human insulin receptor [22] = target: T3, human insulin receptor; experiment: cell-based or functional assay; remark: listed apart in the source

| Binder | Fold Improvement with Insulin [1] [fold] | EC50 of pAkt activation without insulin, mouse INSR CHO-K1 cells (mouse insulin receptor [2]) [nM] | relative maximum pAkt activation without insulin, mouse INSR CHO-K1 cells (mouse insulin receptor [2]) [%] | EC50 of pAkt activation without insulin, human INSR CHO-K1 cells (human insulin receptor [3]) [nM] | relative maximum pAkt activation without insulin, human INSR CHO-K1 cells (human insulin receptor [3]) [%] | Kd (human insulin receptor [4]) [nM] | Kd [5] [nM] | binding result (mouse insulin receptor [6]) | pAKT assay, fold-decrease in insulin EC50 relative to isotype control Ab (human insulin receptor [15]) [fold] | FACS area under log transformed data MFI [16] | FACS area under log transformed data MFI [20] | FACS area under log transformed data MFI (mouse insulin receptor [21]) | also measured |
| --- | --- | --- | --- | --- | --- | --- | --- | --- | --- | --- | --- | --- | --- |
| B1 | 1.4 | 1.42 | 42 | 0.65 | 79 | 0.108 | 0.08 | – | – | – | – | – | – |
| B2 | – | – | – | – | – | – | – | no binding | – | – | – | – | – |
| B3 | 1.5 | 0.69 | 48 | 0.42 | 64 | 0.148 | 0.096 | – | – | – | – | – | FACS area under log transformed data MFI (mouse insulin receptor [7]): 1130; FACS area under log transformed data MFI ratio (+insulin/-insulin) [8]: 0.34; FACS area under log transformed data MFI [9]: 451; FACS area under log transformed data MFI [10]: 574; FACS area under log transformed data MFI ratio (+insulin/-insulin) [11]: 0.51; FACS area under log transformed data MFI (human insulin receptor [12]): 1330 |
| B4 | – | – | – | – | – | – | 0.2 | – | 8.9 | – | – | – | fold-change in insulin EC50 (pAkt) relative to isotype control, 20 ug/ml Ab085, mouse INSR CHO-K1 cells (mouse insulin receptor [13]): 8 fold; fold-change in insulin EC50 (pAkt) relative to isotype control, 1 ug/ml Ab085, human INSR CHO-K1 cells (human insulin receptor [14]): 3 fold; fold-change in insulin EC50 (pAkt) relative to isotype control, 10 ug/ml Ab085, human INSR CHO-K1 cells (human insulin receptor [14]): 9 fold |
| B5 | 19.4 | – | – | – | – | 9.6 | 0.496 | – | 6.7 | 215 | 385 | 154 | fold-change in insulin EC50 (pAkt) relative to isotype control, 20 ug/ml Ab079, mouse INSR CHO-K1 cells (mouse insulin receptor [13]): 8 fold; fold-change in insulin EC50 (pAkt) relative to isotype control, 10 ug/ml Ab079, human INSR CHO-K1 cells (human insulin receptor [14]): 7 fold; FACS area under log transformed data MFI (human insulin receptor [17]): 296; FACS area under log transformed data MFI ratio (+insulin/-insulin) [18]: 1.39; FACS area under log transformed data MFI ratio (+insulin/-insulin) [19]: 1.3 |
| B6 | 1.1 | 1.1 | 34 | 2.43 | 52 | 0.124 | 0.108 | – | – | – | – | – | FACS area under log transformed data MFI (mouse insulin receptor [7]): 1450; FACS area under log transformed data MFI ratio (+insulin/-insulin) [8]: 0.57; fold rise of insulin EC50 (pAkt) in the presence of Ab062 (human insulin receptor [22]): 6.6 fold; FACS area under log transformed data MFI [9]: 790; FACS area under log transformed data MFI [10]: 1010; FACS area under log transformed data MFI ratio (+insulin/-insulin) [11]: 0.7; FACS area under log transformed data MFI (human insulin receptor [12]): 1400 |
| B7 | – | – | – | – | – | – | – | no binding | – | – | – | – | – |
| B8 | 17.6 | – | – | – | – | 12 | 0.68 | – | 8.4 | 191 | 386 | 157 | FACS area under log transformed data MFI (human insulin receptor [17]): 282; FACS area under log transformed data MFI ratio (+insulin/-insulin) [18]: 1.22; FACS area under log transformed data MFI ratio (+insulin/-insulin) [19]: 1.37 |
| B9 | – | – | – | – | – | 7.6 | 0.376 | – | – | 179 | 294 | 81 | – |
| B10 | – | – | – | – | – | – | – | binds | – | – | – | – | – |
